From paper PMC3334289 (Fems Microbiology Letters, 2012)

Target: the molecule itself
Assay: sedimentation of polymers

B1: His6-tagged MreB (MreB-HIS) (natural protein, E. coli, UniProt P0A9X4 1-347, looked up)
chain: MLKKFRGMFSNDLSIDLGTANTLIYVKGQGIVLNEPSVVAIRQDRAGSPKSVAAVGHDAKQMLGRTPGNIAAIRPMKDGVIADFFVTEKMLQHFIKQVHSNSFMRPSPRVLVCVPVGATQVERRAIRESAQGAGAREVFLIEEPMAAAIGAGLPVSEATGSMVVDIGGGTTEVAVISLNGVVYSSSVRIGGDRFDEAIINYVRRNYGSLIGEATAERIKHEIGSAYPGDEVREIEVRGRNLAEGVPRGFTLNSNEILEALQEPLTGIVSAVMVALEQCPPELASDISERGMVLTGGGALLRNLDRLLMEETGIPVVVAEDPLTCVARGGGKALEMIDMHGGDLFSEE
B1: binds.
